From US20230331848A1 (BIOSION, published 2023)

T1: recombinant mouse PD-1-his protein (Cat#:50124-M08H, Sino Biological Inc) (mouse, UniProt Q02242 25-167)
T1 construct: Bought protein used in Biacore and indirect ELISA; not shown: his tag
T1 sequence (looked up): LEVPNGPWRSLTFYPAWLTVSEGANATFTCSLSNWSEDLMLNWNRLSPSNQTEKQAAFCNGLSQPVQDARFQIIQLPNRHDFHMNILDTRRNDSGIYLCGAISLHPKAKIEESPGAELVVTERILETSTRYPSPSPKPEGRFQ

B1: humanized antibody huE1A9C8A7-V8 (antibody, human IgG4 S228P, kappa, V domains shown)
VH: QVQLVQSGAEVVKPGASVKISCKASGYTFTDYVMHWVRQAPGQSLEWMGVISTYHIPAVYNQKFKGKATMTVDTSTSTVYLELSSLRSEDTAVYYCAREVYGDSYYFDVWGQGTTVTVSS
VL: DIVMTQTPLSLPVTPGEPASISCRSSQSIVHSNGNTYLEWYLQKPGQSPQLLIYKVSNRFSGVPDRFSGSGSGTDFTLKISRVEAEDVGVYYCFQGSHVPYTFGGGTKVEIKR
notes: Human IgG4/kappa
B2: humanized antibody huE1A9C8A7-V8-3 (antibody, human IgG4 S228P, kappa, V domains shown)
VH: QVQLVQSGAEVVKPGASVKISCKASGYTFTDYVMHWVRQAPGQSLEWMGVISTYHIPAVYNQKFKGKATMTVDTSTSTVYLELSSLRSEDTAVYYCAREVYGESYYFDVWGQGTTVTVSS
VL: DIVMTQTPLSLPVTPGEPASISCRSSQSIVHSAGNTYLEWYLQKPGQSPQLLIYKVSNRFSGVPDRFSGSGSGTDFTLKISRVEAEDVGVYYCFQGSHVPYTFGGGTKVEIKR
notes: huE1A9C8A7-V8 modified in VH CDR3 (D to E) and VL CDR1 (N to A)

What was measured:
[1] = target: T2, human PD-1 expressed on GS-J2/PD-1 cells (Genscript) (human, UniProt Q15116 25-288); experiment: cell-based binding FACS on GS-J2/PD-1 cells expressing human PD-1 (MFI); unit from the axis 'Con of mAb, nM.'
T2 construct: whole, on cells; also called cell-surface human PD-1

[2] = target: T3, recombinant human PD-1-his protein (Cat#:10377-H08H, Sino biological Inc.) (human, UniProt Q15116 25-167); experiment: SPR (Biacore), Example 9
T3 construct: Bought protein used as analyte in the Biacore tests; not shown: his tag

[3] = target: T4, cynomolgus PD-1-his protein (Cat#:PD1-05223, Acro biosystems Inc.) (cynomolgus, UniProt B0LAJ3 25-170); experiment: SPR (Biacore), Example 9
T4 construct: Bought protein used in Biacore and indirect ELISA; also called monkey PD-1; Cyno PD-1

[4] = target: T5, human PD-1-his protein prepared in-house (human, UniProt Q15116 25-167, biotin-labeled (sites not given)); experiment: competitive ELISA: biotin human PD-1-his + antibody on coated Pembrolizumab (competitor)
T5 construct: also called biotin labeled human PD-1-his
Method: ELISA plates were washed once with wash buffer (PBST, PBS+0.05% Tween-20) and then blocked with 200 μl/well blocking buffer (5% w/v non-fatty milk in PBST) for 2 hours at 37° C. […] After incubation at 37° C. for 40 minutes, plates were washed using wash buffer, added and incubated with 100 μl/well Peroxidase Streptavidin for 40 minutes at 37° C. Plates were washed again using wash buffer. Finally, TMB was added and the reaction was stopped using 1M H₂SO₄. The absorbance was read on a microplate reader using dual wavelength mode with 450 nm for TMB and 630 nm as the reference wavelength, and the OD (450-630) values were plotted against antibody concentrations. Data was analyzed using Graphpad Prism software and IC₅₀ values were reported.

[5] = target: T1, recombinant mouse PD-1-his protein …; experiment: SPR (Biacore), Example 9
[6] = target: T5, human PD-1-his protein prepared in-house; experiment: capture ELISA, antibody captured, biotin human PD-1-his detected
Method: Briefly, 96-well micro plates were coated with 100 μl 2 μg/ml AffiniPure Goat Anti-Mouse IgG F(ab′)₂ fragment specific (Cat#:115-005-072, Jackson lmmunoResearch) or Goat-anti-human IgG (Cat#:109-005-097, Jackson ImmunoResearch, for the positive control and negative control) in PBS overnight at 4° C. Plates were washed once with wash buffer (PBST, PBS+0.05% Tween-20) and then blocked with 200 μl/well blocking buffer (5% w/v non-fatty milk in PBST) for 2 hours at 37° C. […] After a final wash, plates were incubated with 100 μl/well TMB (Cat#:TMB-S-002, Innoreagents) at room temperature.
For the capture ELISA, 96-well plates were coated with 100 μl 2 μg/ml AffiniPure Goat Anti-Human IgG, Fcγ fragment specific (Cat#:109-005-098, Jackson Immunoresearch) instead of AffiniPure goat-anti-mouse IgG F(ab′)₂ fragment specific.

[7] = target: T6, in house made human PD-1-Fc protein (human, biotin-labeled (sites not given)); experiment: blocking FACS: biotin human PD-1-Fc + antibody on GS-C2/PD-L1 cells (competitor: cell-surface human PD-L1)
T6 construct: also called biotin-labeled human PD-1-Fc
Method: GS-C2/PDL1 cells were harvested from cell culture flasks at the log phase, washed twice and re-suspended in PBS containing 2% v/v Fetal Bovine Serum (FACS buffer). GS-C2/PD-L1 cells, 0.6×10⁵ cells per welt, were incubated in 96 well-plates with 100 the antibody/PD1-Fc mixture for 40 minutes at 4° C. Cells were washed twice with FACS buffer, added with 100 R-Phycoerythrin Streptavidin (1:500 dilution in FACS buffer, Cat#:016-110-084, Jackson Immunoresearch), and incubated for 40 minutes at 4° C. in dark. Cells were washed twice and re-suspended in FACS buffer. Fluorescence was measured using a Becton Dickinson FACS Canto II-HTS equipment. Data was analyzed using Graphpad Prism software and IC₅₀ values were reported.

[8] = target: T2, human PD-1 expressed on GS-J2/PD-1 …; experiment: cell-based or functional assay
[9] = target: T2, human PD-1 expressed on GS-J2/PD-1 …; experiment: flow cytometry on GS-J2/PD-1 cells
Method: In specific, the 293F-mouse PD-1 cells and GS-J2/PD-1 cells were respectively harvested from cell culture flasks, washed twice and re-suspended in PBS containing 2% v/v Fetal Bovine Serum (FACS buffer). Then, 2×10⁵ cells per well were incubated in 96 well-plates with 100 μl of the anti-PD1 antibodies or controls at various concentrations for 40 minutes on ice. […] Following an incubation of 40 minutes at 4° C. in dark, cells were washed three times and re-suspended in FACS buffer. Fluorescence was measured using a Becton Dickinson FACS Canto II-HTS equipment and plotted against antibody concentrations. Data was analyzed using GraphPad Prism software and EC₅₀ values were reported.
For the cell-based binding FACS, R-Phycoerythrin AffiniPure Goat Anti-human IgG Fcγ fragment specific (Cat#:109-115-098, Jackson ImmunoResearch) was used for the humanized antibodies, with 1:1000 dilution in FACS buffer, 100 μl/well.

[10] = target: T4, cynomolgus PD-1-his protein …; experiment: indirect ELISA on coated cynomolgus PD-1-his
[11] = target: T6, in house made human PD-1-Fc protein; experiment: competitive ELISA: biotin human PD-1-Fc + antibody on coated human PD-L1-Fc (competitor)
Method: Briefly, 100 μl human PD-L1-Fc protein (prepared in-house with SEQ ID NO: 28) at 2 μg/mL in carbonate/bicarbonate buffer (pH 9.6) was coated on 96-well micro plates overnight at 4° C., Plates were washed with wash buffer (PBS+0.05% w/v Tween-20, PBST), and blocked with 5% w/v non-fatty milk in PBST for 2 hours at 37° C. […] After incubation at 37° C. for 40 minutes, plates were washed using wash buffer. […] Plates were washed again using wash buffer. Finally, TMB was added and the reaction was stopped using 1M H₂SO₄. The absorbance was read on a microplate reader using dual wavelength mode with 450 nm for TMB and 630 nm as the reference wavelength, then the OD (450-630) values were plotted against antibody concentrations. Data was analyzed using Graphpad Prism software and IC₅₀ values were reported.

[12] = target: T7, human PD-1-his protein (Cat#:PD1-H5221, Acro biosystems Inc.) (human, UniProt Q15116 25-167); experiment: BLI (Octet RED96), supernatant antibody captured on AHC sensor, human PD-1-his in solution, 1:1 fit
T7 construct: not shown: his tag
Method: Briefly, AHC biosensors (anti-human IgG Fe capture, from ForteBio) were presoaked with 10 mM glycine (pH 1.5) for 3 seconds, and then dipped in a well with running buffer (0.5% w/v BSA in PBST) for 3 seconds, the soaking and dipping steps were repeated for three times. […] A new baseline was run for 100 seconds in another well with running buffer. Then the sensors were dipped in a well with serially diluted human PD-1-his protein (Cat#:PD1-H5221, Acro biosystems Inc., starting at 100 nM with a two-fold serial dilution) in running buffer for 120 seconds, and then immersed in a baseline well for […]. Finally, sensors were presoaked with 10 mM glycine (pH 1.5) for 30 seconds, and then were dipped in a well with running buffer for 30 seconds. The association and dissociation curves were fit to a 1:1 Langmuir binding model using ForteBio Data Analysis 8.1 evaluation software.

Row | Binder | EC50 [1] [nM] | Kd [2] [nM] | koff [2] [s⁻¹] | kon [2] [M⁻¹ s⁻¹] | Kd [3] [nM] | koff [3] [s⁻¹] | kon [3] [M⁻¹ s⁻¹] | IC50 [4] [nM] | Kd [5] [nM] | koff [5] [s⁻¹] | kon [5] [M⁻¹ s⁻¹] | EC50 [6] [nM] | IC50 [7] [nM] | Cell-based functional assay (EC50, nM) [8] [nM] | EC50 [9] [nM] | EC50 [10] [nM] | IC50 [11] [nM] | Kd [12] [nM] | koff [12] [s⁻¹] | kon [12] [M⁻¹ s⁻¹]
1 | B1 | 0.461 | 0.634 | 0.000593 | 934000 | 1.34 | 0.000484 | 361000 | 0.51 | 380 | 0.0182 | 47900 | 0.21 | 0.55 | 5.13 | 0.63 | 0.82 | 0.33 | 1.13 | 0.000291 | 258000
2 | B2 | 0.451 | 0.382 | 0.00041 | 1.07e+06 | 0.722 | 0.000332 | 461000 | – | 244 | 0.0167 | 64800 | – | – | – | – | – | – | – | – | –
